Where a chain is given by its changes, count along the chain named. Each block holds one binder with its values, some of them ahead of it.
Tests used:
[1] = target: T1, recombinant mouse WISP1/His (mouse, UniProt O54775 23-367); assay: ELISA screening
T1 construct: also called murine WISP1; mWISP1; not shown: His tag
T1 sequence (looked up): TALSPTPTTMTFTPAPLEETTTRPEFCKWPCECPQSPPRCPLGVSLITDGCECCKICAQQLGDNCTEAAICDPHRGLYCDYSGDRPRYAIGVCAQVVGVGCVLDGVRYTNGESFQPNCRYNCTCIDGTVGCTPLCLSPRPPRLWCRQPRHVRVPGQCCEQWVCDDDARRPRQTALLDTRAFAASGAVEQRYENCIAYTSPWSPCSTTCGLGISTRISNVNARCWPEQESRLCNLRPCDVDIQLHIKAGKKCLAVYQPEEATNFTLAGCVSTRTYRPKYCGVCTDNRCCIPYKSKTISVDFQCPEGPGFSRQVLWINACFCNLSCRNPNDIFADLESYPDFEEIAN

[2] = target: T2, recombinant human WISP1/His (human, UniProt O95388 23-367); assay: ELISA screening
T2 construct: also called hWISP1; recombinant human WISP1 protein; not shown: His tag
T2 sequence (looked up): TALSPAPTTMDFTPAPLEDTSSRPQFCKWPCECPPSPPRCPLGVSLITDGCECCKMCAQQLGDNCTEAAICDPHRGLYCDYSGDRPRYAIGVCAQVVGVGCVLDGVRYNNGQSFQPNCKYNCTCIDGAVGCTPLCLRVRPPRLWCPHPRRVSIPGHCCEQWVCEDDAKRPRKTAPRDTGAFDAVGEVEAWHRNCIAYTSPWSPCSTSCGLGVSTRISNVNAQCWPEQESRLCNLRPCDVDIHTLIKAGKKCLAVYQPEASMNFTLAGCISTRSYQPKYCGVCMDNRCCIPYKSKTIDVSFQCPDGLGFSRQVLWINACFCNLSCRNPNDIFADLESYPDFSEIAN

[3] = target: T2, recombinant human WISP1/His; assay: SPR, IgG captured on anti-human Fc CM5 chip, human WISP1/His as analyte, 1:1 Langmuir fit
Description: This example illustrates binding affinities of various anti-WISP-1 antibodies disclosed herein. Briefly, Anti-human Fc antibody (GE, BR-1008-39) was immobilized on CM5 sensor chip to approximately 1000 RU using standard NHS/EDC coupling methodology. Antibodies (about 10 μg/ml) were captured for 60 s at a flow rate 10 μl/min. Recombinant human WISP1/His was serially diluted in running buffer (HBS-EP). All measurements were conducted with a flow rate of 30 μL/min. Surfaces were regenerated with 3M MgCl2 for 60 s. A 1:1 (Langmuir) binding model was used to fit the data.

B1: WIr2D10 (antibody, V domains shown)
VH: QVQLVESGGGVVQPGRSLRLSCGASGFTFSRFAMHWVRQAPGKGLEWVTVTSFDGSEIYYADSVKGRFTISRDNSKNTLYLQMNSLRVDDTAVYFCARDALGSIDYWGQGTLVTVSS
VL: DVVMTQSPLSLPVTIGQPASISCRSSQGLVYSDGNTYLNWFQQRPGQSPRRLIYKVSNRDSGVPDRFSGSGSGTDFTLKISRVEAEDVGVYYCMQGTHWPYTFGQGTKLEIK
notes: Fully human IgG; also called Wlr2D10
binding result [1]: binds | binding result [2]: binds

B2: WIr2H2 (antibody, V domains shown)
VH: EVQLVQSGADVKKPGASVKVSCQASGYTLTSYDIHWMRQAPGQGLEWMGWINPNSGNTGYAEKFQGRVAMTSHTSTSTVYMELSRLTSEDTAVYYCARGAMGGFDPWGQGTLVTVSS
VL: DIQMTQSPSSVSASVGDRVTITCRASQDISRWLAWYQQKPGKAPKLLIYAASTLQSGVPSRFSGSGSGTDFTLTISSLQPEDFATYYCQQANTFPITFGQGTRLEIK
notes: Fully human IgG; also called Wlr2H2
binding result [1]: binds | binding result [2]: binds

B3: WIr2H3 (antibody, V domains shown)
VH: EVQLVQSGGGMVQPGGSLRLSCAASGFTFSDYYMDWVRQAPGQGLEWVGRIRHKAQGYTTEYAASVKGRFSISRDDSRSSLSLQMNSLKTEDTAVYYCAMVGGSRDWGQGTLVTVSS
VL: QAGLTQPPSVSGAPGQRVTISCTGGSSNIGPGYAVHWYQQHPGRAPKLLIYTNNNRPSGVPDRFSGSRSGTSASLAITGLQAEDDAYYYCQSYDSSLSGSVFGGGTKLTVL
notes: Tested as IgG (captured by anti-human Fc); also called Wlr2H3
Kd [3]: 95.9 nM | koff [3]: 0.00897 s⁻¹ | kon [3]: 93500 M⁻¹ s⁻¹ | binding result [1]: binds

B8: WIr2F6 (antibody, V domains shown)
VH: QMQLVQSGAEVKRPGASVKVSCKASGYSFTNFDINWVRQATGQGLEWMGWMDPNSGNSGSAPAFQGRVTMTRDTSIGTAYMELSGLTSEDTAVYYCARDDFYDSSGFDAWGQGTLVTVSS
VL: QSVLTQPPSASGTPGQTVTVSCSGRSSNVGSNTVDWYQHLPGTAPKLLIYSSNRRPSGVPDRFSGSKSGTSASLAISGLQSEDEADYYCAAWDDSLNVYVFGTGTKLTVL
notes: Tested as IgG (captured by anti-human Fc); also called Wlr2F6
Kd [3]: 10.1 nM | koff [3]: 0.00559 s⁻¹ | kon [3]: 554000 M⁻¹ s⁻¹ | binding result [1]: binds

B10: WIr2D6 (antibody, V domains shown)
VH: EVQLVQSGAEVKRSGASVKVSCKLSGDTLTDLSIHWVRQAPGKGLEWMGGFDFEDGEIVYGDKFKGRVTVTEDPSTDTAYMDLKRLTFEDTAIYYCATIKDIPGRYYFDFWGQGTLVTVSS
VL: VIWMTQSPSSVSASVGDTVTITCRASQGIRSWLAWYQQKPGKAPKLLIYGASSLHSGVPSRFSGSGSGTYFTLTISSLQPEDFATYYCQQADSFPPWTFGQGTKVEIK
notes: Tested as IgG (captured by anti-human Fc); also called Wlr2D6
Kd [3]: 53.9 nM | koff [3]: 0.0489 s⁻¹ | kon [3]: 907000 M⁻¹ s⁻¹ | binding result [1]: binds

B11: WIr2C11 (antibody, V domains shown)
VH: QVQLVESGGALVQPGGSLRLSCAASGFTFSDHWLSWVRQAPGKGLEWVSSISSSSRYIHYADSVKGRFTISRDNAKNSLYLQMNSLSAEDTAVYYCAREDTSMATNGFDVWGQGTMVTVSS
VL: AIQLTQSPSSLSASVGDRVTITCRASQGIRNHLGWYQQKPGKAPKRLIYAASSLQSGVPSRFSGSGSGTEFTLTISGLQPEDFATYYCLQHNSYPFTFGQGTRLEIK
notes: Tested as IgG (captured by anti-human Fc); also called Wlr2C11
Kd [3]: 81.7 nM | koff [3]: 0.0219 s⁻¹ | kon [3]: 267000 M⁻¹ s⁻¹ | binding result [1]: binds

B14: WIr2H4 (antibody, V domains shown)
VH: EVQLVESGGDLVQPGGSLRLSCAASGFTLNSRDMHWVRQSTRTGLEWVAAISIAGDTYYPLSVRGRFTISRDTAKSSLYLQMNSLTDGDTAVYYCVRGRHFDGYKSVFFDSWGQGTLVTVSS
VL: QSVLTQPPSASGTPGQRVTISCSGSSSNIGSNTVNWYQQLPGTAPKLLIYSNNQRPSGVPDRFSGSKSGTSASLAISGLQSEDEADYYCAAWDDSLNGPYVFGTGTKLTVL
notes: Tested as IgG (captured by anti-human Fc); also called Wlr2H4
Kd [3]: 0.631 nM | koff [3]: 0.00025 s⁻¹ | kon [3]: 396000 M⁻¹ s⁻¹ | binding result [1]: binds

The remaining lines, values ahead:

binding result [1]: binds | binding result [2]: binds
B4: WIr2G7 (antibody, V domains shown)
VH: QVQLVQSGAEVKKPGASVKVSCKASGYTFTSYDINWVRQATGQGPEWLGWLNPGSGKTGNAQNFQGRVFMTWDTSKDTAYMEMSSLRSDDTAVYYCARNLDYWGQGTLVTVSS
VL: DIVMTQTPLSLPVTLGQPASISCRSSQSLVYSDGNTYLSWLQQRPGQPPRVLINQISNRFSGVPDRFSGSGAGTDFTLKISRVEAEDVGVYYCMQATQFPVTFGGGTKVEIK
notes: Fully human IgG; also called Wlr2G7

binding result [1]: binds | binding result [2]: binds
B5: WIr2B9 (antibody, V domains shown)
VH: QVQLVQSGAEVKKPGSSVKVSCKASGGTFNNYNINWVRQAPGQGFEWMGRIVPMLGVPKYAQKFQGRVTISADMSTSTAYMELRSLRSDDTAMYYCARGEDLDPWGQGTLVTVS
VL: SYELMQPASVSGSPGQSITISCTGTSSDVGGYNYVSWYQQHPGKAPKLMIYDVSKRPSGVSNRFSGSKSGNTASLTISGLQAEDEADYYCSSYTSSSPYVFGTGTKVTVL
notes: Fully human IgG; also called Wlr2B9

binding result [1]: binds | binding result [2]: binds
B6: WIr2D5 (antibody, V domains shown)
VH: EVQLVESGAEVKKPGASVKVSCKASGYTFTSYGISWVRQAPGQGLEWMGWISAYNGNTNYAQKLQGRVTMTTDTSTSTAYMELRSLRSDDTAVYYCARVRVFEYSSLMDVWGQGTTVTVSS
VL: AIQMTQSPSSLSASVGDRVTITCQASQDISNYLNWYQQKPGKAPKLLIYDASNLETGVPSRFSGSGSGTDFTFTISSLQPEDIATYYCQQHDNLPITFGQGTRLEIK
notes: Fully human IgG; also called Wlr2D5

binding result [1]: binds | binding result [2]: binds
B7: WIr2D3 (antibody, V domains shown)
VH: QVQLVQSGGGLVQPGRSLRLSCAASGFTFSSYGMHWVRQAPGKGLEWVAVISYDGSNKYYADSVKGRFTISRDNSKNTLYLQMNSLRAEDTAVYYCFDDYVDYWGQGTLVTVSS
VL: DIVMTQTPSSLSASVGDRVTITCRASQGISNYLAWYQQKPGKAPKLLIYAASSLQSGVPSRFSGSGSGTDFTLTISSLRPEDFATYYCLQDYSFPLTFGGGTKVEIK
notes: Fully human IgG; also called Wlr2D3

binding result [1]: binds | binding result [2]: binds
B9: WIr2G8 (antibody, V domains shown)
VH: QVQLVQSGAEVQKPGASVKVSCKASGYRFINNDIHWVRQATGQGLEWMGWMDPNNGKTGYAQKFQGRVTMTRDTSISTAYMELSSLRSEDTGVYYCVRGIIAAAGGGWGQGTLVTVSS
VL: DVVMTQSPSTLSASVGDRATITCRASQSVDTWLAWYQQKPGKAPHVLIYKASNLNSGVPSRFSGSGSGTEFTLTISSLQPDDFATYYCQQYKTWWTFGQGTKVEIK
notes: Fully human IgG; also called Wlr2G8

binding result [1]: binds | binding result [2]: binds
B12: WIr2D9 (antibody, V domains shown)
VH: QVQLVQSGAEVKKPGASVKVSCKVSGYTLTELSMHWVRQAPGKGLEWMGGFDPEDGETIYAQKFQGRVTMTEDTSTDTAYMELSSLRSEDTAVYYCATEGWFGELSPVYWGQGTLVTVSS
VL: B11 VL with G28D, H32D, K42R, K45Q, A50T, A51T, S53T, G77S, S93T, F96W
notes: Fully human IgG; also called Wlr2D9

binding result [1]: binds | binding result [2]: binds
B13: WIr2E4 (antibody, V domains shown)
VH: QVQLQQSGAEVKKPGASVKVSCKVSGYTLTELSMHWVRQAPGKGLEWMGGFDPEDGETIYAQKFQGRVTMTEDTSTDTAYMELSSLRSEDTAVYYCATDRWWERTTWGAFDIWGQGTMVTVSS
VL: QSVLTQPASVSGSPGQSITISCIGTGSAAVSWYQQHPGKAPKLIIYDVNNRPSGVSARFSGSKSDNTASLTISGLQAEDEGDYYCSTYGAGSTWVFGGGTKLTVL
notes: Fully human IgG; also called Wlr2E4
